According to patent US12606635B2, “Glypican-2-binding moieties, chimeric antigen receptors and uses thereof” (Nanjing Legend Biotech Co., Ltd., priority 2020, dated 2026):

T1: human GPC2 expressing cells HEK293T/hGPC2 (Homo sapiens, UniProt Q8N158)
T1 construct: expressed in transfected cells; host or cells: HEK293T (ATCC, #CRL-1573), plvx-EF1α-puro plasmid
T1 sequence (Q8N158 24-554): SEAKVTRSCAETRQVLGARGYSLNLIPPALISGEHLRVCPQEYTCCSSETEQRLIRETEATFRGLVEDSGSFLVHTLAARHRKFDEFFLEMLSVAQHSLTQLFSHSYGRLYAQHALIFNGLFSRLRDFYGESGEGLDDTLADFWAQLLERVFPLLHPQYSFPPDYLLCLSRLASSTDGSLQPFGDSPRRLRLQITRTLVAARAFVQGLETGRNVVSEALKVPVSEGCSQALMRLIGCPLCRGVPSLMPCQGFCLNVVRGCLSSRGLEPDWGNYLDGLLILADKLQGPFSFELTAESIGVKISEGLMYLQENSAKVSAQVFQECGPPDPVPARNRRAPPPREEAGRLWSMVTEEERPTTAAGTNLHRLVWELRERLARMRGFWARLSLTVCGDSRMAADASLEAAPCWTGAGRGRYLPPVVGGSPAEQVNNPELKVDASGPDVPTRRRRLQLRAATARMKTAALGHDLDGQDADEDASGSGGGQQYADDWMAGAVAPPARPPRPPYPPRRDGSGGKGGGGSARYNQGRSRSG

T2: human GPC2 expressing cells SH-SY5Y (Homo sapiens, UniProt Q8N158)
T2 construct: host or cells: SH-SY5Y
T2 sequence (Q8N158 24-554): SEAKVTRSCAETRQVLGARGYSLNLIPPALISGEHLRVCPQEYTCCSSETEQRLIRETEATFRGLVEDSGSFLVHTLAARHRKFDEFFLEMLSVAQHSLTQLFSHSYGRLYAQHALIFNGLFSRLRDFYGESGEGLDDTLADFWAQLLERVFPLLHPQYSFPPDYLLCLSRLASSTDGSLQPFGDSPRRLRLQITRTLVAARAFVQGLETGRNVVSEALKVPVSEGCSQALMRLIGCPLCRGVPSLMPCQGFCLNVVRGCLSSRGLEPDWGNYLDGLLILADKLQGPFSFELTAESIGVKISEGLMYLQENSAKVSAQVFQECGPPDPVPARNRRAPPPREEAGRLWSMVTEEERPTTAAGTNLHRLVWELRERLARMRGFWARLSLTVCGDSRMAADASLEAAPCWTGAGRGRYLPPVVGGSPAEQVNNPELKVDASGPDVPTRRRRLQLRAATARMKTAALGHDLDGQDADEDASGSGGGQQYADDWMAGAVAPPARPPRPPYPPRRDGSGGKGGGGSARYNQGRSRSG

T3: recombinant human GPC2 protein (Homo sapiens, UniProt Q8N158)
T3 construct: His; purchased RD System (R&D Systems) 2304-GP
T3 sequence (Q8N158 24-554): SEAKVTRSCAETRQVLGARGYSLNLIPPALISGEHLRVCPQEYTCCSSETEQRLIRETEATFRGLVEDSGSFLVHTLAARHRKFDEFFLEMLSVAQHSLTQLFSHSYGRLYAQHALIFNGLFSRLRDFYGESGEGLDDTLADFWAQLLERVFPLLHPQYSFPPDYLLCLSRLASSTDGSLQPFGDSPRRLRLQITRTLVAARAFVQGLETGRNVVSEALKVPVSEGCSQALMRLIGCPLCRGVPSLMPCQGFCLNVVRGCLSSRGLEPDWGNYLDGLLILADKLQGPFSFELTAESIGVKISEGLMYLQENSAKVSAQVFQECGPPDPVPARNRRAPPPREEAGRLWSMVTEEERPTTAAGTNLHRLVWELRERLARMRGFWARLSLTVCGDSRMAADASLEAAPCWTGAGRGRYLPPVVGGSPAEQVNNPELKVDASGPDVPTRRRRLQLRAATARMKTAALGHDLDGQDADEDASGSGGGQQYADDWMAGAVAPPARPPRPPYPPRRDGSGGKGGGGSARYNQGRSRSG

T4: recombinant human GPC2-His protein (Homo sapiens, UniProt Q8N158)
T4 construct: His
T4 sequence (Q8N158 24-554): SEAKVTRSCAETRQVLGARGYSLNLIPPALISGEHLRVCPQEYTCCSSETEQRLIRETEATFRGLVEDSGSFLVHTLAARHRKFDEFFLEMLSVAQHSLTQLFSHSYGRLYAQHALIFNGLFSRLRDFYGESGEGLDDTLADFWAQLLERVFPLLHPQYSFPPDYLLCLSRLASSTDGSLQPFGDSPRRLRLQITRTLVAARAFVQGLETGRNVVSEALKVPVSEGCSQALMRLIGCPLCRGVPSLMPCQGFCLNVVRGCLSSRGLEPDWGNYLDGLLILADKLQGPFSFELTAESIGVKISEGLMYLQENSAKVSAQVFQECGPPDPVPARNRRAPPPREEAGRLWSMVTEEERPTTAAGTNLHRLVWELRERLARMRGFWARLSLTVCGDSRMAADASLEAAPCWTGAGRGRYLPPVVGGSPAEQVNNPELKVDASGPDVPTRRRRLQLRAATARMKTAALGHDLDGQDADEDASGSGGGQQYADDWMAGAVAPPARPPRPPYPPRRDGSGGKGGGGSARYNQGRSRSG


What was measured:
[1] = target: T1, human GPC2 expressing cells HEK293T/hGPC2; experiment: Flow cytometry binding of VHH-His proteins to HEK293T/hGPC2; conditions: FIG. 4A-4C
Description: (§1) Recombinant anti-GPC2 VHH-His proteins were constructed by fusing the anti-GPC2 VHH sequence to a mouse Ig heavy chain signal peptide sequence (N′-MGWSWILLFLLSVTAGVHS-C; SEQ ID NO: 179) at the N terminus, and a 6×His-tag (N′-HHHHHH-C; SEQ ID NO: 180) at the C terminus. The codons were further optimized for optimal expression in mammalian engineered immune effector cells. The obtained nucleotide sequences were then cloned into a mammalian expression vector pCDNA3.4 to provide expression plasmids.
(§2) Binding affinities of humanized VHH proteins AS70950VH6, AS71529VH6, AS72669VH6 and AS71529VH6-AS70950VH6 anti-GPC2 VHH-HIS proteins to human GPC2 expressing cells (SH-SY5Y and HEK293T/hGPC2) and cynomolgus monkey GPC2 expressing cell (HEK293T/cynoGPC2) were determined using flow cytometry. Briefly, serially diluted anti-GPC2 VHH-HIS proteins were incubated with 2×10^5 target cells at 4° C. for 30 mins. After washing, cells were further labelled with THE™ His tag Antibody (iFluor 647) (Genescript, #A01802) at 4° C. for 30 mins. Fluorescence intensity was measured by flow cytometry. A four parameters variable slope curve was fitted to each group using GraphPad Prism for Windows Version 6.02.

[2] = test system: cynomolgus monkey GPC2 expressing cell HEK293T/cynoGPC2; experiment: Flow cytometry binding of VHH-His proteins to HEK293T/cynoGPC2; conditions: FIG. 4A-4C
Description: as §1, §2

[3] = target: T2, human GPC2 expressing cells SH-SY5Y; experiment: Flow cytometry binding of VHH-His proteins to SH-SY5Y; conditions: FIG. 4A-4C
Description: as §1, §2

[4] = target: T3, recombinant human GPC2 protein; experiment: ELISA-based specific binding assay, human GPC2; conditions: FIG. 3A-3G
Procedure: (§3) To evaluate the specificity of humanized anti-GPC2 VHH5 to recombinant human GPC2 protein, an ELISA-based binding assay was conducted to determine the differential target proteins binding of anti-GPC2 VHH5. Briefly, microplates were coated with 2 μg/mL recombinant human GPC1-His (RD System, Cat #4519-GP), GPC2-His (RD System, Cat #2304-GP), GPC3-His (ACRO, Cat #GP3-H5223), GPC4-Fc (RD System, Cat #9195-GP), GPC5-His (RD System, Cat #2607-G5/CF), GPC6-His (RD System, Cat #2845-GP) or recombinant mouse GPC2-His (RD System, Cat #2355-GP) proteins. Recombinant human protein coated plates were blocked with skim milk. Serially diluted humanized VHH-hIgG1Fc recombinant antibodies were added to each well of the plates and incubated at 4° C. for 1.5 h. Samples were further labelled with HRP-conjugated goat anti human IgG (H+L) secondary antibody (Genescript, Cat #A00166-1) and signal was developed with 3,3′,5,5′-Tetramethylbenzidine (TMB) substrate according to manufacturer's instruction. For the GPC4, VHH-His recombinant antibodies and anti-His tag secondary antibody (Genescript, Cat #A00612) were added to the GPC4-Fc coated plates instead. Optic density at 450 nm was measured by plate reader.

[5] = target: T4, recombinant human GPC2-His protein; experiment: SPR (Biacore T200) affinity of anti-GPC2 VHH-hIgG1Fc; conditions: 1:1 binding model
Procedure: Each of the exemplary anti-GPC2 VHH sequences was cloned into a vector comprising a human IgG1Fc fragment (hlgG1Fc) sequence to facilitate recombinant expression of anti-GPC2 VHH-hlgG1Fc. Recombinant proteins were obtained and purified for SPR assays. The affinity of each anti-GPC2 VHH-hIgG1Fc for GPC2 was determined by SPR using a BIACORE® T200 analytical system (GE Healthcare). Briefly, recombinant human GPC2-His protein was covalently coupled to a CM5(s) sensor chip using an amine coupling kit. Exemplary VHH-hIgG1Fc proteins were serially diluted in running buffer (10 mM HEPES, 150 mM NaCl, 3 mM EDTA, 0.05% Tween-20, pH 7.4) and injected over the chip cell at a flowrate of 100 μL/min for 100 seconds followed by buffer-only injection for 300 seconds to allow for antibody dissociation. The dissociation […] (KD) were determined using the BIACORE® T200 evaluation software version 3.0 (Langmuir binding, local fit, 1:1 binding model).

[6] = test system: other recombinant human and murine GPC family proteins (human GPC1, GPC3, GPC4, GPC5, GPC6, mouse GPC2); experiment: ELISA-based specific binding assay, cross-reactivity; conditions: FIG. 3A-3G
Procedure: as §3

Row | Molecule | binding to HEK293T/hGPC2 [1] | binding to HEK293T/cynoGPC2 [2] | binding to SH-SY5Y [3] | binding to recombinant human GPC2 protein [4] | ka [5] [M⁻¹ s⁻¹] | kd [5] [s⁻¹] | cross-reactivity with other recombinant human and murine GPC family proteins [6]
1 | AS72669VH6: humanized anti-GPC2 VHH, SEQ ID NO: 130; tested as VHH-HIS protein (protein, His tag; AS72669VH6, tested as VHH-HIS protein) VHH: QVQLVESGGGVVQPGGSLRLSCAASRFTYSSYCMGWIRQAPGKGREGVAIFYTGGGRTYYADSVKGRFTISQDNSKNTLYLQMNSLRAEDTAVYYCVAGFYCSGGYWEGDFGYWGQGTLVTVSS | specifically bind | specifically bind | specifically bind |  |  |  | 
2 | AS70950VH6-hIgG1Fc: AS70950VH6 VHH fused to human IgG1Fc fragment (protein, left off: a dimerising Fc or GST, AS70950VH6 VHH fused to human IgG1Fc fragment) EVQLVESGGGLVQPGGSLRLSCAISEFTYKNTCVGWFRQAPGKGREGVAAIDSDGNTNYVDSVKGRFTISQDNSKNTVYLQMNSLRAEDTAMYYCAAGAYCGRLLLWIGNYAYWGQGTLVTVSS |  |  |  | high affinity | 390000 | 0.00011 | no cross-reactivity
3 | AS70950VH6: humanized anti-GPC2 VHH, SEQ ID NO: 124; tested as VHH-HIS protein (protein, His tag; AS70950VH6, tested as VHH-HIS protein) VHH: EVQLVESGGGLVQPGGSLRLSCAISEFTYKNTCVGWFRQAPGKGREGVAAIDSDGNTNYVDSVKGRFTISQDNSKNTVYLQMNSLRAEDTAMYYCAAGAYCGRLLLWIGNYAYWGQGTLVTVSS | specifically bind | specifically bind | specifically bind |  |  |  | 
4 | AS79236VH6-hIgG1Fc: AS79236VH6 VHH fused to human IgG1Fc fragment (protein, left off: a dimerising Fc or GST, AS79236VH6 VHH fused to human IgG1Fc fragment) EVQLVESGGGLVQPGGSLRLSCAVSGYTYSSYCMAWFRQAPGKGLEGVASIDAGGRTTYVDSVKGRFTISKDNAKNSLYLQMNSLRAEDTAMYYCAVDVRTRCGGTWDGEAVYFPYWGQGTLVTVSS |  |  |  | high affinity | 530000 | 0.00019 | no cross-reactivity
5 | AS71529VH6-hIgG1Fc: AS71529VH6 VHH fused to human IgG1Fc fragment (protein, left off: a dimerising Fc or GST, AS71529VH6 VHH fused to human IgG1Fc fragment) EVQLVESGGGLVQPGGSLRLSCAVSEYRYSSRYCMGWFRQAPGKGREGVAAIDSNGSADYVDSVKGRFTISKDNSKNTLYLQMNSLRAEDTAMYYCAADHLAYDCYSGATSVFRYWGQGTLVTVSS |  |  |  | high affinity | 850000 | 0.0044 | 
6 | AS71529VH6: humanized anti-GPC2 VHH, SEQ ID NO: 127; tested as VHH-HIS protein (protein, His tag; AS71529VH6, tested as VHH-HIS protein) VHH: EVQLVESGGGLVQPGGSLRLSCAVSEYRYSSRYCMGWFRQAPGKGREGVAAIDSNGSADYVDSVKGRFTISKDNSKNTLYLQMNSLRAEDTAMYYCAADHLAYDCYSGATSVFRYWGQGTLVTVSS | specifically bind | specifically bind | specifically bind |  |  |  | 
7 | AS71529VH6-AS70950VH6: tandem humanized anti-GPC2 VHH, SEQ ID NO: 146; tested as VHH-HIS protein (protein, His tag; AS71529VH6-AS70950VH6, tested as VHH-HIS protein) VHH: EVQLVESGGGLVQPGGSLRLSCAVSEYRYSSRYCMGWFRQAPGKGREGVAAIDSNGSADYVDSVKGRFTISKDNSKNTLYLQMNSLRAEDTAMYYCAADHLAYDCYSGATSVFRYWGQGTLVTVSSGGGGSGGGGSGGGGSEVQLVESGGGLVQPGGSLRLSCAISEFTYKNTCVGWFRQAPGKGREGVAAIDSDGNTNYVDSVKGRFTISQDNSKNTVYLQMNSLRAEDTAMYYCAAGAYCGRLLLWIGNYAYWGQGTLVTVSS | specifically bind | specifically bind | specifically bind |  |  |  | 
8 | AS78117VH4-hIgG1Fc: AS78117VH4 VHH fused to human IgG1Fc fragment (protein, left off: a dimerising Fc or GST, AS78117VH4 VHH fused to human IgG1Fc fragment) EVQLVESGGGLVQPGGSLRLSCIVSRYTYATYSMAWFRQAPGKGLEGVSGLDSVGATGYAESVKGRFTISRDNSKNTLYLQMNSLRAEDTAVYYCVVDPASAKVTYGSWSTPSYAYWGQGTLVTVSS |  |  |  | high affinity | 200000 | 0.00017 | no cross-reactivity
